No end group written: not given here.
Tests used:
DGI-2 = molecular target: T1, DGI-2 (Homo sapiens, UniProt Q15004); experiment: ELISA analysis of phage on DGI-2 polypeptide (specific binding); details: for DGI-2 (OD): binding to DGI-2 polypeptide (specific binding), phage ELISA units read at 405 nm; for DGI-2/LDH (OD): ratio of specific binding to non-specific binding
T1 construct: encompassed the entire DGI-2 open reading frame (ORF); His-tag of vector pIVEX2.3-MCS (inferred from the vector and from the reverse primer lacking a stop codon); made in house; host or cells: cell-free in vitro translation (Rapid Translation System RTS, Roche; E. coli lysate)
T1 sequence (Q15004 1-111): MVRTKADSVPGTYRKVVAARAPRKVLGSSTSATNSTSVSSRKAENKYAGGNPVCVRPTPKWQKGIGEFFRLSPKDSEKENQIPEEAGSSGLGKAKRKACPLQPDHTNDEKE
Protocol: To verify that the selected target binders bound to DGI-2, Elisa assays were performed with recombinant DGI-2. DGI-2 was subcloned and expressed using conventional methods as described below.
Protein yields were satisfactory, but most of protein was found in inclusion bodies. Next, DGI-2 was expressed using an in vitro translation system (Rapid Translation System RTS 5000, Roche Diagnostics GmbH, Mannheim Germany). For this system, the DGI-2 ORF was cloned into the pIVEX2.3-MCS vector (Roche Diagnostics) using restriction sites Nde I and Hind III, which were added to DGI-2 by PCR. […] The primers used for the PCR amplification were as follows: […]
(§1) For analysis of individual target binders, colonies were picked and phage prepared as described above using helper phage, M13KO7. Ninety-six-well microtiter plates were coated with 500 ng/well of specific target protein, 500 ng/well lactate dehydrogenase (LDH) irrelevant or non-specific target, 500 ng/well of positive control antibody raised against ETAG, and negative control of non-fat milk powder-PBS 2% at 4° C. overnight. Plates were then blocked with 350 microliters/well PBS containing 2% non-fat milk for 1 hr at room temperature. One hundred microliters per well of phage from isolated clones were added and plates were incubated at room temperature for 2 hr after centrifuging samples for 20 minutes at 3500 rpm at 4° C. The phage solution was then removed, and the wells were washed three times with PBS at room temperature. Antibody raised against M13 conjugated to horseradish peroxidase (Pharmacia) was diluted 1:3000 in PBS-Tween and added to each well (100 μl/well). Incubation was for 1 hr at room temperature, followed by washing with PBS-(0.5%) Tween 3 times as described. Color was developed by addition of ABTS solution (100 μl/well; Boehringer, Indianapolis, Ind.). Plates were analyzed at 405 nm. A clone was considered “positive” if the A405 of the well was ≧2-fold over background.

[1] = tested on: lactate dehydrogenase (LDH); experiment: ELISA analysis of phage on LDH (irrelevant, non-specific target); assay type: binding; details: peptide binding to LDH polypeptide (non-specific binding); phage ELISA units read at 405 nm
Protocol: as §1

E-tag antibody = experiment: ELISA analysis of phage on antibody raised against ETAG (positive control); details: peptide binding to E-tag antibody; phage ELISA units read at 405 nm
Protocol: as §1

Substance | DGI-2 (OD) (DGI-2) | DGI-2/LDH (OD) (DGI-2) | LDH (OD) [1] [OD] | ETAG (OD) (E-tag antibody)
TIDVARRFGYGWWDLWLDGD (DGI-2-20R-3-C3; listed as Escherichia coli) | 7.9 | 7.0 | 1.1 | 20.2
RRTQPAYRSGADDRTSGFYCYVTSALSAGAWMPFLPRRLA (DGI-2-40F-3-A12; listed as Escherichia coli) | 0.9 | 1.1 | 0.8 | 4.6
VAFGEQJRVAMAGTLWQRWR (VAFGEQIRVAMAGTLWQRWR; not fully specified; non-natural residue J; DGI-2-20R-3-D5; listed as Escherichia coli) | 1.5 | 1.4 | 1.1 | 8.5
SSVWATWGSDLRTFGSVGFL (DGI-2-20F-PP-C7; listed as Escherichia coli) | 3.0 | 2.6 | 1.1 | 11.0
DDIVCLFQFCTMFCWLDMGW (DDIVCLFQFCIMFCWLDMGW; DGI-2-20F-PP-H3; listed as Escherichia coli) | 2.3 | 1.3 | 1.8 | 3.7
DYKTCVSQHVHPLFGEYFYHKVTHMSILSPTFRVTSLYG.K (DYKTCVSQHVHPLFGEYFYHKVTHMSILSPTFRVTSLYGK; DGI-2-40F-3-B95; listed as Escherichia coli) | 1.0 | 1.2 | 0.8 | 5.4
SVSGGGVFGTGGRVRHQVSG (DGI-2-20F-PP-C5; listed as Escherichia coli) | 2.2 | 2.4 | 0.9 | 33.9
GWSDFVATGSWSGQVSAALN (DGI-2-20R-4-F120; listed as Escherichia coli) | 13.6 | 12.2 | 1.1 | 16.5
YDQVWNSLLAAVLGGQELVN (DGI-2-20F-3-D112; listed as Escherichia coli) | 1.4 | 1.4 | 1.0 | 19.9
MGQGFHYNRQPYMSHQCYAFTFSTPFLDGDRIPHGVSRGL (DGI-2-40F-3-D1; listed as Escherichia coli) | 0.8 | 1.0 | 0.8 | 4.1
SIVSSRSGWQRGWIAWEAPV (SIVSSRSGWQRGWIAWFAPV; DGI-2-20F-PP-E5; listed as Escherichia coli) | 2.7 | 2.7 | 1.0 | 30.4
DGKHLTKWSGRGWWSAWVGG (DGI-2-20R-3-B12; listed as Escherichia coli) | 5.7 | 5.5 | 1.0 | 15.5
YTPASILTGFQRGYEGAGNG (DGI-2-20R-4-G7; listed as Escherichia coli) | 4.7 | 3.9 | 1.2 | 11.6
VLCLE#ALGLSGLGWRVVVGP (VLCLEALGLSGLGWRVVVGP; DGI-2-20F-PP-G4; listed as Escherichia coli) | 2.5 | 2.2 | 1.1 | 25.6
LFRFSGTGMASLPCVGWHLV (DGI-2-20F-PP-B6; listed as Escherichia coli) | 2.5 | 2.6 | 1.0 | 37.0
RRILPWSFPGCGRMC (DGI-2-20R-3-A10; listed as Escherichia coli) [DGJ-2-20R-3-A10] | 6.2 | 5.9 | 1.1 | 16.4
MGVVLECEGGWSIPGQTCYF (DGI-2-20R-3-C7; listed as Escherichia coli) | 5.1 | 5.1 | 1.0 | 18.0

Substance | DGI-2 (OD) (DGI-2) | DGI-2/LDH (OD) (DGI-2) | LDH (OD) [1] [OD] | ETAG (OD) (E-tag antibody)
TVKFQGVVQERSRIAGFRYCGDHAVSWGLAGCPALRDKLQ (DGI-2-40F-3-C424; listed as Escherichia coli) | 5.5 | 5.2 | 1.1 | 14.8
LGRIVRPCVVRLCGGV##GV (LGRIVRPCVVRLCGGVGV; DGI-2-20F-PP-G10; listed as Escherichia coli) | 2.5 | 2.0 | 1.2 | 30.1
VVGYAQGDGLEGGLGSSRDGS (DGI-2-20F-PP-D8; listed as Escherichia coli) | 2.3 | 2.2 | 1.1 | 2.6
YGTAGLFLRRACTMSDPGDPLGRRGYTGWGVLWDEWVTGS (DGI-2-40F-3-C8; listed as Escherichia coli) | 5.7 | 6.0 | 0.9 | 13.6
FSSTGILLRSGRATAVGHVT (DGI-2-20F-3-A6; listed as Escherichia coli) | 1.5 | 1.4 | 1.1 | 13.2
FGRDGDGIQRRQGGFSWVGDR (DGI-2-20F-PP-E2; listed as Escherichia coli) | 1.7 | 2.4 | 0.7 | 11.6
SRPGWCSRGTAWGFPGCSSS (DGI-2-20R-3-C4; listed as Escherichia coli) | 4.5 | 4.2 | 1.1 | 19.1
RDTTSQWSWISRGWEFPGWR (DGI-2-20R-3-C2; listed as Escherichia coli) | 6.2 | 5.8 | 1.1 | 11.9
RDTMCGSVSWGIPGCEYSGM (DGI-2-20R-4-G122; listed as Escherichia coli) | 7.6 | 7.1 | 1.1 | 13.9
MAVLPAARDFGGVVQGGVSG (DGI-2-20F-3-C2; listed as Escherichia coli) | 1.3 | 1.3 | 1.0 | 11.5
LTWGPQFGSLQVYSRHRGLP (DGI-2-20R-4-E4; listed as Escherichia coli) | 1.6 | 1.3 | 1.2 | 18.1
V#CR#LCRLCRFSMRCGGLSLVLGSAAAFFCEVFVGFCV (VCRLCRLCRFSMRCGGLSLVLGSAAAFFCEVFVGFCV; not fully specified (residues 1, 3); cysteine pairing not given here; also: TAA stop codons (#) after V1 and after R3; listed as Escherichia coli) [DGI-2-40F-4-E1130] | 2.9 | 3.2 | 0.9 | 8.3
TPVAISIPAGVCSTSVCGRD (DGI-2-20F-PP-C11; listed as Escherichia coli) | 2.4 | 2.6 | 0.9 | 3.2
QLDCLVWGLPGLRCDRPLEQ (DGI-2-20R-3-B10; listed as Escherichia coli) | 7.8 | 7.6 | 1.0 | 17.0
RQRSGGRWVVDRVTRVASTSP (DGI-2-20F-PP-B12; listed as Escherichia coli) | 2.3 | 2.2 | 1.1 | 1.9
RKGWGVFCIPGLRFCDWSDP (DGI-2-20R-3-B4; listed as Escherichia coli) | 8.4 | 8.6 | 1.0 | 17.4
